Patent US20230192897A1 (NUMAB THERAPEUTICS, published 2023)
Substitutions are numbered along the chain they refer to.

T1: mouse CD137-Fc chimeric protein (mouse, UniProt P20334 24-187, limits assumed)
T1 sequence (looked up): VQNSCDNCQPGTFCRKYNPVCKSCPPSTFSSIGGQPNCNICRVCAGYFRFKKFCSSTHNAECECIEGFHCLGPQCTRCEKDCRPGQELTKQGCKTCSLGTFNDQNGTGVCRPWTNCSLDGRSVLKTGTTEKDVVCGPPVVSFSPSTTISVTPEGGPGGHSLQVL

B1: PRO1123 (bispecific antibody)
chain: DIQMTQSPSSLSASVGDRVTITCQASQSINDYLAWYQQKPGKAPKLLIYKASTLASGVPSRFSGSGSGTDFTLTISSLQPEDFATYYCQQGYIITDIDNVFGTGTKVTVLGGGGGSQVQLQESGPGLVKPSETLSLTCKVSGFSFSNSYWICWVRQPPGKGLEWIGCTFVGSSDSTYYANWAKGRVTISVDSSKNQVSLKLSSVTAADTAVYFCARHPSDAVYGYANNLWGQGTLVTVSSGGGGSGGGGSGGGGSGGGGSIQMTQSPSSLSASVGDRVTITCQASQSINNVLAWYQQKPGKPPKLLIYRASTLASGVPSRFSGSGSGTDFTLTISSLQPEDFATYYCQSSYGNYGDFGTGTKVTVLGGGGGSQVQLQESGPGLVKPSETLSLTCKVSGFSFSSGYDMCWIRQPPGKGLEWIGCVVAGSVDITYYASWAKGRVTISVDSSKNQFSLKLSSVTAADTAVYYCARKDAYSDAFNLWGQGTLVTVSS
notes: scDb; also called 38-02-A04 sc05 IF scDb-i/33-03-G02 sc01 scDb-o
B2: PRO1124 (bispecific antibody)
chain: B1 chain with V140A, V190K, I261L
notes: scDb; also called 38-02-A04 sc06 Full scDb-i/33-03-G02 sc01 scDb-o
B3: PRO997 (scFv)
scFv: DIQMTQSPSSLSASVGDRVTITCQASQSIGTYLAWYQQKPGKAPKLLIYRAFILASGVPSRFSGSGSGTDFTLTISSLQPEDFATYYCQSNFYSDSTTIGPNAFGTGTKVTVLGGGGGSGGGGSGGGGSGGGGSQVQLQESGPGLVKPSETLSLTCKVSGFSFNSDYWIYWIRQPPGKGLEWIGSIYGGSSGNTQYASWAQGRVTISVDSSKNQFSLKLSSVTAADTAVYYCARGYVDYGGATDLWGQGTLVTVSS
notes: also called 37-20-B03 sc01 scFv; 37-20-B03 CDR

Columns and labels:
[1] = target: T2, CD137 on Jurkat NFkB reporter cells (human, UniProt Q07011 24-255); assay: cell-based or functional assay
[2] = target: T2, CD137 on Jurkat NFkB reporter cells; assay: cell-based or functional assay; remark: listed apart in the source
[3] = target: T3, Fc tagged human CD137 (human, UniProt Q07011 24-186); assay: SPR
T3 construct: also called CD137-Fc chimeric protein
Procedure, shortened: (§1)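 Kinetics were fitted with a one-to-one Langmuir model to give apparent ka, kd and KD. Binders at 0.12-90 nM (three-fold series) flowed 3 min, with 10 min dissociation and 3 M MgCl₂ regeneration, on a Biacore T200.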

[4] = target: cynomolgus CD137-Fc chimeric protein (cynomolgus monkey, UniProt A9YYE7 24-186); assay: SPR
Procedure, shortened: as §1

[5] = target: T1, mouse CD137-Fc chimeric protein; assay: SPR
Procedure, shortened: as §1

[6] = target: T4, Fc tagged human PDL1 (human, UniProt Q9NZQ7 19-239); assay: SPR
T4 construct: Bought (Sino Biological, cat. 10084-H02H); captured on the SPR chip; also called PDL1-Fc chimeric protein
Procedure, shortened: as §1

[7] = target: T2, CD137 on Jurkat NFkB reporter cells; assay: cell-based or functional assay; remark: listed apart in the source
[8] = target: T2, CD137 on Jurkat NFkB reporter cells; assay: cell-based or functional assay; remark: listed apart in the source
[9] = target: T5, cynomolgus PDL1-Fc chimeric protein (cynomolgus monkey, UniProt G7PSE7 19-239); assay: SPR
T5 construct: PDL1-Fc chimeric protein from different species captured on the chip
Procedure, shortened: as §1

[10] = target: human PDL1 on cells (human, UniProt Q9NZQ7 19-290); assay: cell-based or functional assay
[11] = target: T6, biotinylated human PDL1 (human, UniProt Q9NZQ7 19-238, limits assumed, biotinylated); assay: competition ELISA PD-1/PDL1
T6 construct: also called biotinylated PDL1

[12] = target: T6, biotinylated human PDL1; assay: competition ELISA B7.1/PDL1
Procedure, shortened: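 IC₅₀ was derived by four-parameter logistic fitting of reference-subtracted A450/690 readings. The signal came from streptavidin-polyHRP40 (10 ng/ml) with a 6-minute TMB reaction detecting biotinylated PDL1 bound to the plate. Pre-mixed samples sat 1 h at RT before a 1.5 h plate incubation.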

Binder | EC50, NFkB reporter, HCC827 without IFNg [1] [ng/mL] | Top of curve fit, NFkB reporter, HCC827 without IFNg [1] | EC50, NFkB reporter, HCC827 with IFNg [2] [ng/mL] | Top of curve fit, NFkB reporter, HCC827 with IFNg [2] | Kd [3] [nM] | koff [3] [s⁻¹] | kon [3] [M⁻¹ s⁻¹] | koff [4] [s⁻¹] | kon [5] [M⁻¹ s⁻¹] | koff [6] [s⁻¹] | kon [6] [M⁻¹ s⁻¹] | EC50, NFkB reporter, CHO-PDL1 [7] [ng/mL] | Top of curve fit, NFkB reporter, CHO-PDL1 [7] | IC50 (ng/ml), NFkB reporter, CHO-PD-L1 [8] [ng/mL] | IC50 (ng/ml), NFkB reporter, HCC827 + IFNg [8] [ng/mL] | IC50 (ng/ml), NFkB reporter, HCC827 - IFNg [8] [ng/mL] | max. activation (%), NFkB reporter, CHO-PD-L1 [8] [%] | max. activation (%), NFkB reporter, HCC827 + IFNg [8] [%] | max. activation (%), NFkB reporter, HCC827 - IFNg [8] [%] | rel. IC50 (urelumab/test), NFkB reporter, CHO-PD-L1 [8] [fold] | other results
B1 | 16.1 | 123 | 11.9 | 154 | 0.58 | 0.00027 | 310000 | 0.00033 | 65000 | 0.00017 | 2.3e+06 | 5.75 | 219 | 5.75 | 11.4 | 16.1 | 219 | 154 | 123 | 18.1 | Kd [4]: 1.3 nM; kon [4]: 260000 M⁻¹ s⁻¹; Kd [5]: 410 nM; koff [5]: 0.027 s⁻¹; rel. IC50 (urelumab/test), NFkB reporter, HCC827 + IFNg [8]: 12.2 fold; rel. IC50 (urelumab/test), NFkB reporter, HCC827 - IFNg [8]: 6.82 fold
B2 | 5.62 | 113 | 4.83 | 188 | ≤ 0.015 | < 1e-05 | 680000 | 0.00033 | 200000 | 0.0002 | 3.1e+06 | 3.68 | 229 | 3.68 | 4.83 | 5.62 | 229 | 188 | 113 | 23.5 | fold improvement of affinity against PRO885 [3]: > 200 fold; rel. IC50 (urelumab/test), NFkB reporter, HCC827 + IFNg [8]: 22.4 fold; rel. IC50 (urelumab/test), NFkB reporter, HCC827 - IFNg [8]: 19.9 fold
B3 |  |  |  |  |  |  |  |  |  | < 2e-05 | 5.9e+06 |  |  |  |  |  |  |  |  |  | koff [9]: < 1e-05 s⁻¹; kon [9]: 6e+06 M⁻¹ s⁻¹; Kd [6]: ≤ 0.0017 nM; fold higher affinity against the STR graft of clone 33-03-G02 [6]: ~2 fold; IC50 (ng/ml), NF-AT potency assay [10]: 11.1 ng/mL; rel. IC50 (avelumab/test) [10]: 3.07 fold; IC50 [11]: 0.5 ng/mL; rel. IC50 (IC50 avelumab/IC50 test) [11]: 4.16 fold; IC50 [12]: 6.36 ng/mL; rel. IC50 (IC50 avelumab/IC50 test) [12]: 2.34 fold
